Patent US20030219410A1 (TRANSGENE S A, published 2003)

Molecular target: T1, recombinant PML (wild-type 69 kDa isoform PML, PML3B) (UniProt P29590 1-560)
T1 construct: Untagged protein used in the co-transfection and co-localisation experiments; also called Promyelocytic Leukemia Protein
T1 sequence: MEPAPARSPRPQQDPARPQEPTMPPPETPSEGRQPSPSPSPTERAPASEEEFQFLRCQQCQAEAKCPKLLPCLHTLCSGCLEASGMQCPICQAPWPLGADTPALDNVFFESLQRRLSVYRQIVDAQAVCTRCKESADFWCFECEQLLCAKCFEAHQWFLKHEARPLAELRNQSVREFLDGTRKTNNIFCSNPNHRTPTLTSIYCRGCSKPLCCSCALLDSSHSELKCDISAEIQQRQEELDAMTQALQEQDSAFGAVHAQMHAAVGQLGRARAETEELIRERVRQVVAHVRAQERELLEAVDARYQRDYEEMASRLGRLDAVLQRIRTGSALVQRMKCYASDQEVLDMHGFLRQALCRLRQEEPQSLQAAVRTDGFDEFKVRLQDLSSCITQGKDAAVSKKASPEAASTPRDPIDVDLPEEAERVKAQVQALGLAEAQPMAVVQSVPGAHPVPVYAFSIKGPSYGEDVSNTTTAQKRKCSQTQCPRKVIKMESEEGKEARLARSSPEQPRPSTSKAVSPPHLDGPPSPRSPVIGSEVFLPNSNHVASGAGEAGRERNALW
Experiment: co-localisation by immunostaining and EM in transiently co-transfected cells

B1: recombinant wt pIX protein (other)
chain: MSTNSFDGSIVSSYLTTRMPPWAGVRQNVMGSSIDGRPVLPANSTTLTYETVSGTPLETAASAAASAAAATARGIVTDFAFLSPLASSAASRSSARDDKLTALLAQLDSLTRELNVVSQQLLDLRQQVSALKASSPPNAV
notes: Untagged protein used in the co-transfection and co-localisation experiments
binding result: binds
